Test results taken from US20240368263A1 (PROMETHEUS BIOSCIENCES, published 2024).

T1: human TL1A (Fitzgerald, Prod. #30R-AT070) (human, UniProt O95150 72-251, limits assumed, biotinylated with EZ-Link Sulfo-NHS-LC-Biotin where used as soluble antigen)
T1 construct: also called TNFSF15; biotinylated human TL1A
T1 sequence (looked up): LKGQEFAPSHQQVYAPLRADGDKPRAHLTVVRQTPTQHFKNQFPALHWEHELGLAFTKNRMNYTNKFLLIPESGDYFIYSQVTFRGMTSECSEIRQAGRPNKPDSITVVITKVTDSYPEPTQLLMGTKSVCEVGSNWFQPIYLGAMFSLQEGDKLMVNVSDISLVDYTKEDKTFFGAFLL

B1: clone 2-3 Fab (12835 framework variant) (Fab, V domains shown)
VH: QVQLVQSGAEVKKPGASVKLSCKASGFDIQDTYMHWVRQAPGQGLEWMGRIDPASGHTKYDPKFQVRVTMTTDTSTSTVYMELSSLRSEDTAVYYCSRSGGLPDVWGQGTTVTVSS
VL: EIVLTQSPGTLSLSPGERATLSCRASSSVSYMYWYQQKPGQAPRPWIYATSNLASGIPDRFSGSGSGTDYTLTISRLEPEDFAVYYCQQWSGNPRTFGGGTKLEIK
notes: Fab
B2: clone 9-1 Fab (12835 framework variant) (Fab, V domains shown)
VH: QVQLVQSGAEVKKPGASVKLSCKASGFDIQDTYMHWVRQAPGQGLEWMGRIDPASGHTKYDPKFQVRVTMTRDTSTSTVYMELSSLRSEDTAVYYCSRSGGLPDVWGQGTTVTVSS
VL: EIVLTQSPGTLSLSPGERATLSCRASSSVSYMYWYQQKPGQAPRPWIYATSNLASGVPDRFSGSGSGTDFTLTISRLEPEDFAVYYCQQWSGNPRTFGGGTKLEIK
notes: Fab
B3: clone 22 Fab (12835 framework variant) (Fab, V domains shown)
VH: QVQLVQSGAEVKKPGASVKLSCKASGFDIQDTYMHWVRQAPGQGLEWMGRIDPASGHTKYDPKFQVRVTMTTDTSTSTVYMELSSLRSEDTAVYYCSRSGGLPDVWGQGTTVTVSS
VL: EIVLTQSPGTLSLSPGERVTMSCRASSSVSYMYWYQQKPGQAPRPWIYATSNLASGVPDRFSGSGSGTDFTLTISRLEPEDFAVYYCQQWSGNPRTFGGGTKLEIK
notes: Fab
B4: clone 19-5 Fab (12835 framework variant) (Fab, V domains shown)
VH: QVQLVQSGAEVKKPGASVKVSCKASGFDIQDTYMHWVRQAPGQGLEWMGRIDPASGHTKYDPKFQVRVTMTRDTSTSTVYMELSSLRSEDTAVYYCSRSGGLPDVWGQGTTVTVSS
VL: EIVLTQSPGTLSLSPGERATLSCRASSSVSYMYWYQQKPGQAPRLLIYATSNLASGVPDRFSGSGSGTDYTLTISRLEPEDFAVYYCQQWSGNPRTFGGGTKLEIK
notes: Fab
B5: clone 13-2 Fab (12835 framework variant) (Fab, V domains shown)
VH: QVQLVQSGAEVKKPGASVKLSCKASGFDIQDTYMHWVRQAPGQGLEWMGRIDPASGHTKYDPKFQVRVTMTRDTSTSTVYMELSSLRSEDTAVYYCARSGGLPDVWGQGTTVTVSS
VL: EIVLTQSPGTLSLSPGERATLSCRASSSVSYMYWYQQKPGQAPRPWIYATSNLASGVPDRFSGSGSGTDYTLTISRLEPEDFAVYYCQQWSGNPRTFGGGTKLEIK
notes: Fab
B6: clone 10-1 Fab (12835 framework variant) (Fab, V domains shown)
VH: QVQLVQSGAEVKKPGASVKLSCKASGFDIQDTYMHWVRQAPGQGLEWMGRIDPASGHTKYDPKFQVRVTMTRDTSTSTVYMELSSLRSEDTAVYYCSRSGGLPDVWGQGTTVTVSS
VL: EIVLTQSPGTLSLSPGERATLSCRASSSVSYMYWYQQKPGQAPRLLIYATSNLASGVPDRFSGSGSGTDYTLTISRLEPEDFAVYYCQQWSGNPRTFGGGTKLEIK
notes: Fab
B7: clone 16-2 Fab (12835 framework variant) (Fab, V domains shown)
VH: QVQLVQSGAEVKKPGASVKLSCKASGFDIQDTYMHWVRQAPGQGLEWMGRIDPASGHTKYDPKFQVRVTMTRDTSTSTVYMELSSLRSEDTAVYYCSRSGGLPDVWGQGTTVTVSS
VL: EIVLTQSPGTLSLSPGERATLSCRASSSVSYMYWYQQKPGQAPRLLIYATSNLASGIPDRFSGSGSGTDYTLTISRLEPEDFAVYYCQQWSGNPRTFGGGTKLEIK
notes: Fab
B8: clone 7-4 Fab (12835 framework variant) (Fab, V domains shown)
VH: QVQLVQSGAEVKKPGASVKLSCKASGFDIQDTYMHWVRQAPGQGLEWMGRIDPASGHTKYDPKFQVRVTMTTDTSTSTVYMELSSLRSEDTAVYYCSRSGGLPDVWGQGTTVTVSS
VL: EIVLTQSPGTLSLSPGERATLSCRASSSVSYMYWYQQKPGQAPRLWIYATSNLASGVPDRFSGSGSGTDYTLTISRLEPEDFAVYYCQQWSGNPRTFGGGTKLEIK
notes: Fab
B9: clone 5-4 Fab (12835 framework variant) (Fab, V domains shown)
VH: QVQLVQSGAEVKKPGASVKLSCKASGFDIQDTYMHWVRQAPGQGLEWMGRIDPASGHTKYDPKFQVRVTMTTDTSTSTVYMELSSLRSEDTAVYYCSRSGGLPDVWGQGTTVTVSS
VL: EIVLTQSPGTLSLSPGERATLSCRASSSVSYMYWYQQKPGQAPRPWIYATSNLASGVPDRFSGSGSGTDYTLTISRLEPEDFAVYYCQQWSGNPRTFGGGTKLEIK
notes: Fab
B10: clone 27 Fab (12835 framework variant) (Fab, V domains shown)
VH: QVQLVQSGAEVKKPGASVKVSCKASGFDIQDTYMHWVRQAPGQGLEWMGRIDPASGHTKYDPKFQVRVTMTTDTSTSTVYMELSSLRSEDTAVYYCSRSGGLPDVWGQGTTVTVSS
VL: EIVLTQSPGTLSLSPGERATLSCRASSSVSYMYWYQQKPGQAPRPLIYATSNLASGVPDRFSGSGSGTDYTLTISRLEPEDFAVYYCQQWSGNPRTFGGGTKLEIK
notes: Fab
B11: clone 26 Fab (12835 framework variant) (Fab, V domains shown)
VH: QVQLVQSGAEVKKPGASVKVSCKASGFDIQDTYMHWVRQAPGQGLEWMGRIDPASGHTKYDPKFQVRVTMTTDTSTSTVYMELSSLRSEDTAVYYCSRSGGLPDVWGQGTTVTVSS
VL: EIVLTQSPGTLSLSPGERATLSCRASSSVSYMYWYQQKPGQAPRPWIYATSNLASGVPDRFSGSGSGTDYTLTISRLEPEDFAVYYCQQWSGNPRTFGGGTKLEIK
notes: Fab
B12: clone 3-4 Fab (12835 framework variant) (Fab, V domains shown)
VH: QVQLVQSGAEVKKPGASVKLSCKASGFDIQDTYMHWVRQAPGQGLEWMGRIDPASGHTKYDPKFQVRVTMTTDTSTSTVYMELSSLRSEDTAVYYCSRSGGLPDVWGQGTTVTVSS
VL: EIVLTQSPGTLSLSPGERATLSCRASSSVSYMYWYQQKPGQAPRPWIYATSNLASGVPDRFSGSGSGTDFTLTISRLEPEDFAVYYCQQWSGNPRTFGGGTKLEIK
notes: Fab
B13: clone 5-2 Fab (12835 framework variant) (Fab, V domains shown)
VH: QVQLVQSGAEVKKPGASVKLSCKASGFDIQDTYMHWVRQAPGQGLEWMGRIDPASGHTKYDPKFQVRVTMTRDTSTSTVYMELSSLRSEDTAVYYCSRSGGLPDVWGQGTTVTVSS
VL: EIVLTQSPGTLSLSPGERVTMSCRASSSVSYMYWYQQKPGQAPRPWIYATSNLASGVPDRFSGSGSGTDYTLTISRLEPEDFAVYYCQQWSGNPRTFGGGTKLEIK
notes: Fab
B14: clone 19 Fab (12835 framework variant) (Fab, V domains shown)
VH: QVQLVQSGAEVKKPGASVKLSCKASGFDIQDTYMHWVRQAPGQGLEWMGRIDPASGHTKYDPKFQVRVTMTTDTSTSTVYMELSSLRSEDTAVYYCSRSGGLPDVWGQGTTVTVSS
VL: EIVLTQSPGTLSLSPGERATLSCRASSSVSYMYWYQQKPGQAPRLLIYATSNLASGIPDRFSGSGSGTDYTLTISRLEPEDFAVYYCQQWSGNPRTFGGGTKLEIK
notes: Fab
B15: clone 17-2 Fab (12835 framework variant) (Fab, V domains shown)
VH: QVQLVQSGAEVKKPGASVKLSCKASGFDIQDTYMHWVRQAPGQGLEWMGRIDPASGHTKYDPKFQVRVTMTRDTSTSTVYMELSSLRSEDTAVYYCSRSGGLPDVWGQGTTVTVSS
VL: EIVLTQSPGTLSLSPGERATLSCRASSSVSYMYWYQQKPGQAPRLLIYATSNLASGVPDRFSGSGSGTDFTLTISRLEPEDFAVYYCQQWSGNPRTFGGGTKLEIK
notes: Fab
B16: clone 5-1 Fab (12835 framework variant) (Fab, V domains shown)
VH: QVQLVQSGAEVKKPGASVKLSCKASGFDIQDTYMHWVRQAPGQGLEWMGRIDPASGHTKYDPKFQVRVTMTRDTSTSTVYMELSSLRSEDTAVYYCSRSGGLPDVWGQGTTVTVSS
VL: EIVLTQSPGTLSLSPGERATLSCRASSSVSYMYWYQQKPGQAPRPWIYATSNLASGVPDRFSGSGSGTDYTLTISRLEPEDFAVYYCQQWSGNPRTFGGGTKLEIK
notes: Fab
B17: clone 20-7 Fab (12835 framework variant) (Fab, V domains shown)
VH: QVQLVQSGAEVKKPGASVKLSCKASGFDIQDTYMHWVRQAPGQGLEWMGRIDPASGHTKYDPKFQVRVTMTRDTSTSTVYMELSSLRSEDTAVYYCARSGGLPDVWGQGTTVTVSS
VL: EIVLTQSPGTLSLSPGERATLSCRASSSVSYMYWYQQKPGQAPRLLIYATSNLASGVPDRFSGSGSGTDYTLTISRLEPEDFAVYYCQQWSGNPRTFGGGTKLEIK
notes: Fab
B18: clone 21 Fab (12835 framework variant) (Fab, V domains shown)
VH: QVQLVQSGAEVKKPGASVKLSCKASGFDIQDTYMHWVRQAPGQGLEWMGRIDPASGHTKYDPKFQVRVTMTTDTSTSTVYMELSSLRSEDTAVYYCSRSGGLPDVWGQGTTVTVSS
VL: EIVLTQSPGTLSLSPGERATLSCRASSSVSYMYWYQQKPGQAPRLWIYATSNLASGIPDRFSGSGSGTDYTLTISRLEPEDFAVYYCQQWSGNPRTFGGGTKLEIK
notes: Fab

target: T1, human TL1A (Fitzgerald, Prod. …); assay: capture lift screen and Fab ELISA on coated TL1A

Binding result, binds:
B1, B2, B3, B4, B5, B6, B7, B8, B9, B10, B11, B12, B13, B14, B15, B16, B17, B18
